# Data published in patent publication US20110038920A1, “WOUND HEALING COMPOSITIONS AND TREATMENTS” (priority 2008, published 2011).
# B1: TGFβ3: growth factor/cytokine, BioVision (protein, UniProt P10600 301-412, looked up)
# Transforming growth factor …: ALDTNYCFRNLEENCCVRPLYIDFRQDLGWKWVHEPKGYYANFCSGPCPYLRSADTTHSTVLGLYNTLNPEASASPCCVPQDLEPLTILYYVGRTPKVEQLSNMVVKSCKCS
# modifications: Transforming growth factor beta-3
# notes: growth factor/cytokine, BioVision
# Tested on: OPN expression in Swiss 3T3 fibroblasts
# Experiment: Induction of OPN expression in fibroblasts by growth factors/cytokines (Western blot)
# Format: cell-based
# Conditions: 8 h; PDGF-BB 20, EGF 100, TGFβ1 10, TGFβ3 10, IL-6 50, TNFα 10 ng/ml
# Method: Protein samples (20 μg; collected in T-PER® Reagent; PIERCE Biotechnology) were separated on Tris-Glycine Gels (Invitrogen), transferred to PVDF, and blotted according to standard protocols (antibody details are provided above).
# Swiss 3T3, J774.1 macrophages, and RBL mast cells were cultured in DMEM+10% fetal calf serum. Primary neutrophils were harvested by peritoneal lavage 4 h post-thioglycollate-induced peritonitis, and primary macrophages were derived from mouse bone marrow and activated with LPS (500 ng/ml).
molecule,measurement,value
B1,ability to upregulate OPN expression in Swiss 3T3s,not
